Assay results from article PMC4569848 (Nature Communications, 2015).
Changes are numbered by the printed parent chain. Names may count otherwise.

T1: GST-clathrin 1–494 (human, UniProt Q00610 1-494)
T1 construct: clathrin, human, residues 1-494, in pGEX-6P1; source: E. coli BL21, purified (glutathione-Sepharose 4B, eluted with GSH); not shown: GST, N-terminal, kept
T1 sequence (looked up): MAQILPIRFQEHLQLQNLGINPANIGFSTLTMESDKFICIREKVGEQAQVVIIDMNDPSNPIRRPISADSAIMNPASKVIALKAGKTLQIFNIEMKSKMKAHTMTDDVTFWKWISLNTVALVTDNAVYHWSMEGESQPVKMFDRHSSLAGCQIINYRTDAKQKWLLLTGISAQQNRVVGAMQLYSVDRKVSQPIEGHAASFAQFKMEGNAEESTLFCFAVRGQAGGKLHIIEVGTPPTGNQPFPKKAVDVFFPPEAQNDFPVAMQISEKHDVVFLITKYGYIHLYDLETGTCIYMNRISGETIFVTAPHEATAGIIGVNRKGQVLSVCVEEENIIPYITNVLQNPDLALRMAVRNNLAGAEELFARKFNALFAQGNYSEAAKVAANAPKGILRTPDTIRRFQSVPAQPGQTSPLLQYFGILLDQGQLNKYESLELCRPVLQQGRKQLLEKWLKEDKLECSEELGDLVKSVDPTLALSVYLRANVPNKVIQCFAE

B1: β-arrestin-1 wild type (natural protein, bovine, UniProt P17870 1-418, looked up)
chain: MGDKGTRVFKKASPNGKLTVYLGKRDFVDHIDLVEPVDGVVLVDPEYLKERRVYVTLTCAFRYGREDLDVLGLTFRKDLFVANVQSFPPAPEDKKPLTRLQERLIKKLGEHAYPFTFEIPPNLPCSVTLQPGPEDTGKACGVDYEVKAFCAENLEEKIHKRNSVRLVIRKVQYAPERPGPQPTAETTRQFLMSDKPLHLEASLDKEIYYHGEPISVNVHVTNNTNKTVKKIKISVRQYADICLFNTAQYKCPVAMEEADDTVAPSSTFCKVYTLTPFLANNREKRGLALDGKLKHEDTNLASSTLLREGANREILGIIVSYKVKVKLVVSRGGLLGDLASSDVAVELPFTLMHPKPKEEPPHREVPEHETPVDTNLIELDTNDDDIVFEDFARQRLKGMKDDKEEEEDGTGSPRLNDR
notes: β-arrestin-1, bovine, full-length wild-type cDNA in pET22b; also called β-arrestin-1-WT; WT; source: E. coli BL21, purified (Ni-NTA, Superdex 200)
B2: β-arrestin-1-D383-F2Y (natural protein, bovine, UniProt P17870 1-418, looked up)
chain: B1 chain with D383Y
modifications: 3,5-difluorotyrosine (F2Y) at 383
notes: β-arrestin-1, bovine, full-length cDNA in pET22b, amber codon at D383 read as F2Y; source: E. coli BL21 (DE3) with pEVOL-F2YRS and F2Y in the medium, purified (Ni-NTA, gel filtration)
B3: β-arrestin-1-K107-F2Y (natural protein, bovine, UniProt P17870 1-418, looked up)
chain: B1 chain with K107Y
modifications: 3,5-difluorotyrosine (F2Y) at 107
notes: β-arrestin-1, bovine, full-length cDNA in pET22b, amber codon at K107 read as F2Y; source: E. coli BL21 (DE3) with pEVOL-F2YRS and F2Y in the medium, purified (Ni-NTA, gel filtration)
B4: β-arrestin-1-N375-F2Y (natural protein, bovine, UniProt P17870 1-418, looked up)
chain: B1 chain with N375Y
modifications: 3,5-difluorotyrosine (F2Y) at 375
notes: β-arrestin-1, bovine, full-length cDNA in pET22b, amber codon at N375 read as F2Y; also called F2Y-N375; source: E. coli BL21 (DE3) with pEVOL-F2YRS and F2Y in the medium, purified (Ni-NTA, gel filtration)
B5: β-arrestin-1-R7-F2Y (natural protein, bovine, UniProt P17870 1-418, looked up)
chain: B1 chain with R7Y
modifications: 3,5-difluorotyrosine (F2Y) at 7
notes: β-arrestin-1, bovine, full-length cDNA in pET22b, amber codon at R7 read as F2Y; source: E. coli BL21 (DE3) with pEVOL-F2YRS and F2Y in the medium, purified (Ni-NTA, gel filtration)
B6: β-arrestin-1-K294-F2Y (natural protein, bovine, UniProt P17870 1-418, looked up)
chain: B1 chain with K294Y
modifications: 3,5-difluorotyrosine (F2Y) at 294
notes: β-arrestin-1, bovine, full-length cDNA in pET22b, amber codon at K294 read as F2Y; source: E. coli BL21 (DE3) with pEVOL-F2YRS and F2Y in the medium, purified (Ni-NTA, gel filtration)
B7: β-arrestin-1-K138-F2Y (natural protein, bovine, UniProt P17870 1-418, looked up)
chain: B1 chain with K138Y
modifications: 3,5-difluorotyrosine (F2Y) at 138
notes: β-arrestin-1, bovine, full-length cDNA in pET22b, amber codon at K138 read as F2Y; source: E. coli BL21 (DE3) with pEVOL-F2YRS and F2Y in the medium, purified (Ni-NTA, gel filtration)
B8: β-arrestin-1-V8-F2Y (natural protein, bovine, UniProt P17870 1-418, looked up)
chain: B1 chain with V8Y
modifications: 3,5-difluorotyrosine (F2Y) at 8
notes: β-arrestin-1, bovine, full-length cDNA in pET22b, amber codon at V8 read as F2Y; source: E. coli BL21 (DE3) with pEVOL-F2YRS and F2Y in the medium, purified (Ni-NTA, gel filtration)
B9: β-arrestin-1-F388-F2Y (natural protein, bovine, UniProt P17870 1-418, looked up)
chain: B1 chain with F388Y
modifications: 3,5-difluorotyrosine (F2Y) at 388
notes: β-arrestin-1, bovine, full-length cDNA in pET22b, amber codon at F388 read as F2Y; source: E. coli BL21 (DE3) with pEVOL-F2YRS and F2Y in the medium, purified (Ni-NTA, gel filtration)
B10: β-arrestin-1-T136-F2Y (natural protein, bovine, UniProt P17870 1-418, looked up)
chain: B1 chain with T136Y
modifications: 3,5-difluorotyrosine (F2Y) at 136
notes: β-arrestin-1, bovine, full-length cDNA in pET22b, amber codon at T136 read as F2Y; also called F2Y-T136; source: E. coli BL21 (DE3) with pEVOL-F2YRS and F2Y in the medium, purified (Ni-NTA, gel filtration)
B11: β-arrestin-1-K11-F2Y (natural protein, bovine, UniProt P17870 1-418, looked up)
chain: B1 chain with K11Y
modifications: 3,5-difluorotyrosine (F2Y) at 11
notes: β-arrestin-1, bovine, full-length cDNA in pET22b, amber codon at K11 read as F2Y; source: E. coli BL21 (DE3) with pEVOL-F2YRS and F2Y in the medium, purified (Ni-NTA, gel filtration)
B12: β-arrestin-1-F277-F2Y (natural protein, bovine, UniProt P17870 1-418, looked up)
chain: B1 chain with F277Y
modifications: 3,5-difluorotyrosine (F2Y) at 277
notes: β-arrestin-1, bovine, full-length cDNA in pET22b, amber codon at F277 read as F2Y; also called F2Y-F277; source: E. coli BL21 (DE3) with pEVOL-F2YRS and F2Y in the medium, purified (Ni-NTA, gel filtration)
B13: β-arrestin-1-F75-F2Y (natural protein, bovine, UniProt P17870 1-418, looked up)
chain: B1 chain with F75Y
modifications: 3,5-difluorotyrosine (F2Y) at 75
notes: β-arrestin-1, bovine, full-length cDNA in pET22b, amber codon at F75 read as F2Y; source: E. coli BL21 (DE3) with pEVOL-F2YRS and F2Y in the medium, purified (Ni-NTA, gel filtration)
B14: β-arrestin-1-L338-F2Y (natural protein, bovine, UniProt P17870 1-418, looked up)
chain: B1 chain with L338Y
modifications: 3,5-difluorotyrosine (F2Y) at 338
notes: β-arrestin-1, bovine, full-length cDNA in pET22b, amber codon at L338 read as F2Y; also called F2Y-L338; source: E. coli BL21 (DE3) with pEVOL-F2YRS and F2Y in the medium, purified (Ni-NTA, gel filtration)
B15: β-arrestin-1 (bovine, full-length wild type, C-terminal His tag) (natural protein, UniProt P17870 1-418, looked up)
chain: B1 chain
notes: β-arrestin-1, bovine, full-length wild-type cDNA in pET22b; also called native β-arrestin-1; wild-type β-arrestin-1; source: E. coli BL21, purified (Ni-NTA, Superdex 200)

Biological target: T1, GST-clathrin 1–494
Assay: pull-down; GST-clathrin pull-down of β-arrestin-1 with V2Rpp at protein:V2Rpp ratios 1:0, 1:0.03, 1:0.3, 1:3 and 1:9; western blot for β-arrestin-1, densitometry
Conditions: both partners purified

Binding result, binds:
B1

Biological target: T1, GST-clathrin 1–494
Assay: pull-down; β-arrestin-1-F2Y mutants (300 nM) incubated with equal concentrations of GST-clathrin and V2R-phospho-peptide (V2Rpp), or without peptide; pulled down with GST beads; bound β-arrestin-1 detected by western blot with a β-arrestin-1 antibody
Conditions: both partners purified

Binding result, binds:
B2
B3
B4
B5
B6
B7
B8
B9
B10
B11
B12
B13
B14

Biological target: T2, GST-SRC3D (SRC-SH2-SH3-kinase-three domain) (chicken, UniProt P00523 87-531)
T2 construct: c-SRC, chicken, residues 87-531, containing SH3, SH2 and catalytic domains; source: E. coli BL21, purified (glutathione-Sepharose 4B, eluted with GSH); not shown: GST, N-terminal, kept
Assay: pull-down; GST pull-down; 300 nM β-arrestin-1 first mixed with phosphopeptide (equal concentration) 30 min at room temperature in 20 mM Tris-HCl pH 8.0, 150 mM NaCl, 2 mM EDTA, 1 mM DTT; then 10 μM GST-clathrin or GST-SRC 1 h; GST beads 2 h at 4 °C; blot with a β-arrestin-1 antibody
Conditions: both partners purified

Binding result, binds:
B15
